Kd data for one molecule are collected here from article PMC11500499, “Molecular dissection of the chromosome partitioning protein RocS and regulation by phosphorylation”.

For this series, the target named is T1, RocS WT-ΔAH (Streptococcus pneumoniae R6, UniProt Q8DQ15 1-152).
T1 sequence: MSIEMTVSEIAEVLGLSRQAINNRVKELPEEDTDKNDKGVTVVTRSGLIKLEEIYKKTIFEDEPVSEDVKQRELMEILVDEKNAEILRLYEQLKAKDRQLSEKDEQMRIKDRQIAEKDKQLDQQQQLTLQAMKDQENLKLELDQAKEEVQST
The experiment in a line: MST; MST: 25 mM Tris/HCl pH 7.5, 100 mM NaCl, 5% glycerol, 0.025% Tween-20, 25 C, 10 nM DNA probe; EMSA: 25 mM Tris/HCl pH 7.5, 100 mM NaCl, 5% glycerol, 100 ng DNA. The note with it: protein: recombinant; tags: C-terminal 6xHis, removed with TEV protease; label: 5' Cy5 on strand 1; blunt. A general note: In EMSA bound probe runs differently from free probe, usually more slowly.

B1: dnaC_Cy5 (dsDNA)
DNA 1: GTCAACCAAGCTTACGAAGCGTCACAACCAGCTGATGAAATTATTGCTCA
DNA 2: TGAGCAATAATTTCATCAGCTGGTTGTGACGCTTCGTAAGCTTGGTTGAC
For orientation: Kd means the free concentration of one partner at which half of the binding sites on the other are occupied at equilibrium, for simple one-to-one binding. Consider B1, for which the dissociation constant (Kd) was found to be 34 µM.
